In patent publication US20140004536A1 (PERSEUS PROTEOMICS, published 2014):

Target: T1, human LY6D (human, UniProt Q14210 21-98, GPI anchor)
T1 construct: whole, on cells; On living cells for FCM, cell ELISA and microscopy; Solubilised from biotinylated cells with surfactant (or released by PI-PLC) for immunoprecipitation and western blot; also called E48 antigen
T1 sequence (looked up): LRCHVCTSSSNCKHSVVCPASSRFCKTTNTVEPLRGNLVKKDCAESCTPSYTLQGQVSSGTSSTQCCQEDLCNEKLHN
Test: confocal laser microscopy, cell ELISA and FCM on X-ray-irradiated MCF10A cells; the antigen is identified as LY6D later in the filing
Method: X-ray-irradiated cells and non-irradiated cells were prepared, and antibodies specific to the irradiated cells were screened for by cell ELISA. That is, reactivity of antibody to both cells was examined by ELISA. A blocking solution (5% skim milk/0.05% NaN₃/PBS) was added at 200 μL/well to both cells, followed by blocking at 37° C. for 2 hours. The blocking solution was removed and the cells were washed with PBS. The supernatant of the above antibody expression culture was added at 100 μL/well, followed by reaction at 37° C. for 1 hour. The resultant was washed five times with PBS. Rabbit anti-cp3 (1 μg/mL) diluted with PBS/0.05% Tween 20 was added at 100 μL/well, followed by reaction at 37° C. for 1 hour. The resultant was washed five times with PBS. Anti-Rabbit IgG (H+L)-HRP diluted 2000-fold with PBS/0.05% Tween 20 was further added at 100 μL/well, followed by reaction at 37° C. for 1 hour. The resultant was washed five times with PBS. […] Then, the absorbance at 492 nm was measured by SPECTRAmax340PC (Molecular Devices). Antibodies showing obvious positive reactivity specific to only the irradiated cells were selected and DNA sequences of the phages were analyzed.
Selection of clones from the antibody library was carried out as follows. […] The 20 candidates were analyzed by flow cytometry (FCM).

B1: E33-139 monoclonal antibody (scFv)
scFv: MAEVQLVESGGGLVQPGRSLRLSCAASGFTFDDYAMHWVRQAPGKGLEWVSGISWNSGSIGYADSVKGRFTISRDNAKNSLYLQMNSLRAEDTALYYCAKTGILDAFDIWGQGTTVTVSRGGGGSGGGGSGGGGSMAQSVLTQPPSVSGAPRQTVTISCSGSSSNIGQNSVTWYQRLPGEAPKLLIYYDDLLHSGVSDRFSGSKSGTSASLAISGLQSEDEAEYYCASWDDSLKGPVFGGGTKLTVLGQPKAAPSVTLFPPSSEELQANKATLVCLISDFYPGAVTVAWKADSSPVKAGVETTTPSKQSNNKYAASSYLSLTPEQWKSHKSYSCQVTHEGSTVEKTVAPTECSAR
notes: Human phage antibody from the AIMS5 library; No result is reported for the IgG; not shown: clones were tested as scFv-CL fused to cp3 or to the protein A domain (scFv-CL-P)
B1: binds.
